Test results as given in the nanobody polyreactivity screen of Harvey et al. (2022).

Assay: yeast display, Sf9 membrane polyspecificity reagent, FACS + sequencing; frameworks hold sequencing errors
In short: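 Genes from sorted yeast were amplified by colony PCR, read by MiSeq 2 × 250 sequencing and filtered on CDR length. These cells carried a synthetic nanobody library in Saccharomyces cerevisiae BJ5465 and were sorted by FACS into low and high (top ~1%) gates on anti-HA and streptavidin fluorescence. Polyreactivity is labelled according to the gate of origin.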

Sequence	polyreactivity (PSR sort gate)
QVQLVESGGGLVQAGGSLRLSCAASGSTFDFNAMGWYRQAPRKERELVASISWDTGGTYADSVKGRFTISRDNAKNSFYLQMNSLKTEDTAVYFCAARPDYFIFDYWGQGTQVTVSS	low polyreactivity
QVQLVESGGGLVQAGGSLRLSCAASGSTFDGNAMGWYRQAPGKERELVAAITSGGSTNYADSVKGRFTISRDNAKNTDYLQMNSLKPEDTAVYYCAADTVSFSILYDYWGQGTQVTVSS	low polyreactivity
QVQLVESGGGLVQAGGSLRLSCAASGSTFDGNAMGWYRQAPGKERELVAAITYTTSSTYYADSVKGRFTISRDNAKNTVYLQMNSLKPEDTAVYYCAADASYLPYPLPGTEYEYWGQGTQVTVSS	low polyreactivity
QVQLVESGGGLVQAGGSLRLSCAASGSTFDGYAMGWYRQAPGKERELVAAISSSGTSTYYADSVKGRFTISRDNAKNTVYLQMNSLKPEDTAVYYCAGKGATQSWAGDYWGQGTQVTVSS	low polyreactivity
QVQLVESGGGLVQAGGSLRLSCAASGSTFDGYAMGWYRQAPGKERELVAAITVSVGSTYYADSVKGRFTISRDNAKNTVYLQMNSLIPEDTAVYYCAADYDYHYRYYYWGQGTQVTVSS	low polyreactivity
QVQLVESGGGLVQAGGSLRLSCAASGSTFDGYAMGWYRQAPGKERELVASISWDDVRTYYADSVKGRFTISRDNAKNTVYLQMNSLKPEDTAVYDCAKGDIEYFWSRIYGYWGQGTQVTVSS	low polyreactivity
QVQLVESGGGLVQAGGSLRLSCAASGSTFDGYVMGWYRQAPGKEREFVAAISWSGGSTYYADSVKGRFTISRDNAKYTVYLQMNRLKREDTAVYYCAARVRRQHGYWGQGTQVTVST	high polyreactivity
QVQLVESGGGLVQAGGSLRLSCAASGSTFDHYAMGWYRQAPGKERELVASITLSGGSTYYADSVKGRFTISRDNAKNTVYLQMNSLKPEDTAVYYCNVDYPFYQYGYYYNYNYWGQGTQVTVSS	low polyreactivity
QVQLVESGGGLVQAGGSLRLSCAASGSTFDIYAMGWYRQAPGKERELVAAISNSGDTYYADSVKGRFTISRDNAKNTVYLQMNSLKPEDTAVYYCNADFHDWFDYWGQGTQVTVSS	high polyreactivity
QVQLVESGGGLVQAGGSLRLSCAASGSTFDIYVMGWYRQAPGKEREFVAAITTTTGRTNYADSVKGRFTISRDNAKNTVYLQMNSLKPEDTAVYYCAAYVTWGKLWYGYWGQGTQVTVSS	high polyreactivity
QVQLVESGGGLVQAGGSLRLSCAASGSTFDIYVMGWYRQAPGKERELVAAISRVGNTSYADSVKGRFTISRDNAKNTVYLQMNSLNPEDTAVYYCAADAPSWYDRQYDYWGQGNQVTVSS	low polyreactivity
QVQLVESGGGLVQAGGSLRLSCAASGSTFDKYAMGWYRQAPGKERELVAAITWGGGSTYYADSVKGRFTISRDNAKNTVYLQMNSLKPEDTAVYYCAAEQGSSVLYDSWGQGTQVTVSS	low polyreactivity
QVQLVESGGGLVQAGGSLRLSCAASGSTFDKYAMGWYRQAPRKERELVAAITWGGGSTYYADSVKGRITISRDNAKNTVYLPMNSLKPEDTAVYYCAAEQRSSVLYDSWGQGTQVTVSS	low polyreactivity
QVQLVESGGGLVQAGGSLRLSCAASGSTFDKYSMGWYRQAPGKERELVAAITWGGGSTYYADSVKGRFTISRDNAKNTVYLQMNSLKPEDTAVYYCAAEQGSSVLYDSWGQGTQVTVSS	low polyreactivity
QVQLVESGGGLVQAGGSLRLSCAASGSTFDLYAMGWYRPAPGKERELVAAITSSGGRTYYADSVKGRFTISRDNAKNTVYLQMNSLKPEDTAVYYCAATSSGGYYDGYNYWGQGTQVTVSS	high polyreactivity
QVQLVESGGGLVQAGGSLRLSCAASGSTFDNYAMGWYRQAPGKERELVAAINSRGGRTYYADSVKGRFTISRDNAKNTVYLQMNSLKPEDTAVYYCAAVGATHRFDYWGQGTQVTVSS	high polyreactivity
QVQLVESGGGLVQAGGSLRLSCAASGSTFDPNDMGWYRPAPGKERQLVASITSRGGSTYYADSVKGRFTISRDNAKNTVYLQMNSLKPEDTAVYYCAAVGGATYSWNGYSWYPWHNYWGQGTQVTVSS	low polyreactivity
QVQLVESGGGLVQAGGSLRLSCAASGSTFDPYAMGWSRQAPGKEREMVAAISTSVGGTYYADSVKGRFTISRDYAKNTVNLQMNSLKPEDTAVYYCAVDYSDVQAYTSNEEDYWGQGTQVTVSS	low polyreactivity
QVQLVESGGGLVQAGGSLRLSCAASGSTFDQNVMGWYRQAPGKERELVATINFSGDSTYYADSVKGRFTISRDNAKNTVYLQMNSLKPEDTAVYYCAVDWGEYIDTSVKRDISYYWGQGTQVTVSS	low polyreactivity
QVQLVESGGGLVQAGGSLRLSCAASGSTFDRNVMGWYRQAPGKERELVAAISRVSSTNYADSVKGRFTFSRDNAKNTVYLLMNSLKPEDTAVYYCAADRAGSIMNYWGQGTQVTVSS	low polyreactivity
QVQLVESGGGLVQAGGSLRLSCAASGSTFDRYTLGWYRQAPGKERELVAGISNSGGSTYYADSVKGRFTISRDNAKNTVYLQMNSLKPEDTAVYYCAAAYSIRRILYYYWGQGTHVTVSS	high polyreactivity

Sequence	polyreactivity (PSR sort gate)
QVQLVESGGGLVQAGGSLRLSCAASGSTFDSNGMGWYRQAPGKERELVADITYSDGRTYADSVKGRFTISRDNAKNTVYLQMNSLKPEDTAVYYCAVSDSVYAGFTSYDYWGQGTQVTVSS	low polyreactivity
QVQLVESGGGLVQAGGSLRLSCAASGSTFDSNTMRWYRQAPGKETELVAAITVSGGSTHYADSVKGRFTISRDNAKNTVYLQMNSLKPEDTAVYYCNRRSYGYGAFSGYDYWGQGTQVTVSS	low polyreactivity
QVQLVESGGGLVQAGGSLRLSCAASGSTFDSNVMGWYRQAPGKERELVAAIDLSGGITYYADSVKGRFTISRDNAKNTVYLQMNSLKPEDTAVYYCATDEGYRYPHVDLTEVYYWGQGTQVTVSS	low polyreactivity
QVQLVESGGGLVQAGGSLRLSCAASGSTFDSYAMGWYRQAPGKEGELVAAITGGGDTNYADSVKGRFTISRDNAKNTVYLQMNSLKPEDTAVYYCAAYQRRGNYQMDYWGQGTQVTVSS	low polyreactivity
QVQLVESGGGLVQAGGSLRLSCAASGSTFDTNAMGWYRQAPGKDRELVAAITSGGNTYADSVKGRFTISRDNAKNTVYLQMNSLKPEDTAVYYCAAEDVYTGWYDYWGQGTQVTVSS	low polyreactivity
QVQLVESGGGLVQAGGSLRLSCAASGSTFDTNAMGWYRQAPGKERELVATITSIGGSTYADSVKGRFTISRDNAKNTVYLQMNSLKPEDNAVYYCATDYVEIDYYYDYWGQGTQVTVSS	low polyreactivity
QVQLVESGGGLVQAGGSLRLSCAASGSTFDTYAMGWYRPAPGKERELVAGMTRRGGRTYYADSVKGRFTISRDTAKNTVYLQKNSLKPEDTADYYCNAVPQRPVGKLDHWGQGTQVTVSS	high polyreactivity
QVQLVESGGGLVQAGGSLRLSCAASGSTFDVNTMGWYRQAPGKERELVAAIRLRGGSTYYADSVKGRFTISRDNAKNTVYLQMYSLKPEDTEVSYCAADYTLIYDYWGQGTQVTVSS	low polyreactivity
QVQLVESGGGLVQAGGSLRLSCAASGSTFDVYAMGWYIQAPGKERELVASIRWSGGSTNYADSVKGRFTISRDNAKNTVYLQMNSLKPEDTAVYYCNADVGTGFRPGQYDYWGQGTQVTLSS	low polyreactivity
QVQLVESGGGLVQAGGSLRLSCAASGSTFDVYDMGWYRQAPGKERELVASISWDGDRTYYADSVKGRFTISRDNAKNTVYLQMNSLKPEDTAVYYCAVDSASDTIYDYWGQGTQVTVSS	low polyreactivity
QVQLVESGGGLVQAGGSLRLSCAASGSTFDWYAMGWYRQAPGKEREFVAAIDQDEDSTYYADSVKGRFTISRDNAKNTVYLQMNSLKPEVTAVYYCAADHAWYSLFDYWGQGTQVTVSS	low polyreactivity
QVQLVESGGGLVQAGGSLRLSCAASGSTFDWYTMGWYRQATGKERELVADITSGGSTYYADSVKGRFTISRDNAKNTVYLQMNSLKPEDTAAYYCNAYLYTWRWAFDYWGQGTQVTVSS	high polyreactivity
QVQLVESGGGLVQAGGSLRLSCAASGSTFDYNAKGSYRQAPGKERELVAVISSSGGSTYYADSVKGRFTISRDIAMNTVYLQMNSLKPVDTAVYYCAALYRNYGSSYAYYYWGLGTQVTVSS	low polyreactivity
QVQLVESGGGLVQAGGSLRLSCAASGSTFDYNAMGWYRQAPGKERELVAAISARGTSTYYADSVKGRFTISRDNAKTTVYLQMNSLKPEDTAVYYCAARIHTAYYIFGYWGQGTQVTVSS	high polyreactivity
QVQLVESGGGLVQAGGSLRLSCAASGSTFDYNAMGWYRQAPGKERELVAAISWRGGGTYYADSVKGRFTISRDNAKNTVYLQMNSLKPEDTAVYYCNTVSRNGFYRSRHDYWGQGTQVTVSS	low polyreactivity
QVQLVESGGGLVQAGGSLRLSCAASGSTFDYYAMGWSRQAPGKERELVAAITGTGGSTYYADSEKGRFTISRNNAKNTVYLQMNSLKPEDTAVYYCNRVSGTRRHTMDYWGQGTQVTVSS	low polyreactivity
QVQLVESGGGLVQAGGSLRLSCAASGSTFDYYAMGWYRQAPGKERELVAAISGSGGSTYYADSVKGRITISRDNAKNTVYLQMNSLKPEDTAVYYCATVRSRLFGQYYYWGQGTQVTVSS	high polyreactivity
QVQLVESGGGLVQAGGSLRLSCAASGSTFDYYARGWYRQAPGKERELVAGISSSGGRTYYADSVKGRFTISRDNAKNTVYLQMNSLKPEDTAVYYCAARIRVRKHEAFDYWGQGTQVTVSS	low polyreactivity
QVQLVESGGGLVQAGGSLRLSCAASGSTFDYYDMGWYRQAPGKERELVAAISSGGDSTYYADSVKGRFTISRDNAKNTVYLQMNSLKPEDTAVYYCAAAVYYGQSVWYYYWGQGTQVTVSS	high polyreactivity
QVQLVESGGGLVQAGGSLRLSCAASGSTFDYYDMGWYRQAPGKERELVAAISYSGTSTYYADSVKGRFTISRDNAKNTVYLQMNSLKPEDTAVYYCAKVFPDWYWYDYWGQGTQVTVSS	low polyreactivity
